The values that follow come from patent US20030032157A1, “Polypeptides interactive with Bcl-XL” (priority 2001, published 2003).

In assay [1] the target is human Bcl-XL-GST fusion protein (human) [GST: P08515]. Briefly: purified labeled free peptide on immobilized Bcl-XL-GST.
The target in assay [2] is T1, Bcl-XL-GST fusion protein (Homo sapiens, UniProt Q07817).
T1 construct: made in house; host or cells: E. coli BL21 (DE3) pLysS
Briefly: Free purified polypeptide binding to Bcl-XL-GST fusion protein (additional selection, FIG. 9). Conditions: purified free polypeptides. The protocol: (§1) Detection of a polypeptide binding to a Bcl-XL-glutathione S-transferase (GST) fusion protein was carried out as follows. Twenty microliters of glutathione Sepharose 4B slurry (AP Biotech) was aliquoted to a microcentrifuge tube and washed with PBS. The Bcl-XL-GST fusion protein (60 μg), prepared as describe above, was added and allowed to bind to the Sepharose beads for 1 hr at 4° C. The beads were then re-washed in selection buffer (50 mM Tris-HCL pH 7.5, 150 mM KCl, 0.05% Triton X-100, 0.5 mg/ml BSA, and 0.1 mg/ml salmon sperm DNA). The Bcl-XL-GST beads were resuspended in 100 μl of selection buffer (approximately 11.5 μM Bcl-XL) and ^35S-labeled mRNA display construct or free peptide was added (approximately 10-60 nM) and incubated on a rotator for 1 hr at 4° C. The reaction was then transferred to a microcentrifuge column (BioRad) and unbound mRNA display constructs or free peptides were removed by a 10 sec spin at 1,000 rpm. The Sepharose beads were then washed three times with 500 μl of selection buffer. The extent of binding between the Bcl-XL-GST fusion protein and the mRNA display constructs or free peptides was determined by scintillation counting each fraction, including the recovered beads. […]

In assay [3] the target is T2, human Bcl-XL protein produced as a GST fusion (Homo sapiens, UniProt Q07817).
T2 construct: made in house; host or cells: E. coli BL21 (DE3) pLysS
Description: Binding of mRNA display constructs to Bcl-XL-GST fusion protein immobilized on glutathione Sepharose beads (scintillation counting). Conditions: BH3 domain or control peptides as individual mRNA display constructs, 1 hr 4° C. The procedure:
Detection of a polypeptide binding to a Bcl-XL-glutathione S-transferase (GST) fusion protein was carried out as follows. Twenty microliters of glutathione Sepharose 4B slurry (AP Biotech) was aliquoted to a microcentrifuge tube and washed with PBS. The Bcl-XL-GST fusion protein (60 μg), prepared as describe above, was added and allowed to bind to the Sepharose beads for 1 hr at 4° C. The beads were then re-washed in selection buffer (50 mM Tris-HCL pH 7.5, 150 mM KCl, 0.05% Triton X-100, 0.5 mg/ml BSA, and 0.1 mg/ml salmon sperm DNA). […] The extent of binding between the Bcl-XL-GST fusion protein and the mRNA display constructs or free peptides was determined by scintillation counting each fraction, including the recovered beads.
Members of the Bcl-2 family of apoptotic proteins function via homo- and heterodimerization, occurring primarily through the binding of a single α-helix designated the BH3 domain (Bcl-2 Homology domain 3) in a corresponding pocket produced by three α-helices in the interacting partner (Diaz et al., J. Biol. Chem. 272:11350-11355, 1997; and Sattler et al., Science 275:983-986, 1997). […] The amount of peptide bound to the beads was determined by scintillation counting and graphed as the percent of input counts bound (FIG. 2B).

The target in assay [4] is T3, human Bcl-XL-GST fusion protein (human, UniProt P08515 1-218 = GST; Q07817 1-211).
T3 construct: Made in E. coli, immobilized on glutathione Sepharose beads; whole entry named; also called Bcl-XL-glutathione S-transferase (GST) fusion protein; GST-BCL-XL
Description: 35S-labeled mRNA display construct on Bcl-XL-GST glutathione Sepharose beads, scintillation counting. The procedure: as §1, with “³⁵S-labeled” for “^35S-labeled”

Assay [5] concerns the target T3, human Bcl-XL-GST fusion protein. Description: labeled free peptide on Bcl-XL-GST beads, immobilized target varied from 11 nM to 28 µM. The procedure:
Detection of a polypeptide binding to a Bcl-XL-glutathione S-transferase (GST) fusion protein was carried out as follows. Twenty microliters of glutathione Sepharose 4B slurry (AP Biotech) was aliquoted to a microcentrifuge tube and washed with PBS. The Bcl-XL-GST fusion protein (60 μg), prepared as describe above, was added and allowed to bind to the Sepharose beads for 1 hr at 4° C. The beads were then re-washed in selection buffer (50 mM Tris-HCL pH 7.5, 150 mM KCl, 0.05% Triton X-100, 0.5 mg/ml BSA, and 0.1 mg/ml salmon sperm DNA). The Bcl-XL-GST beads were resuspended in 100 μl of selection buffer (approximately 11.5 μM Bcl-XL) and ³⁵S-labeled mRNA display construct or free peptide was added (approximately 10-60 nM) and incubated on a rotator for 1 hr at 4° C. […] The extent of binding between the Bcl-XL-GST fusion protein and the mRNA display constructs or free peptides was determined by scintillation counting each fraction, including the recovered beads.
Purified radioactively labeled protein from the individual clones was incubated with immobilized Bcl-XL-GST for one hour and, after washing, the amount bound was determined by scintillation counting. […] The amount of peptide bound to Bcl-XL was determined by scintillation counting and normalized to that bound at the highest concentration. […]

The target is the same in assay [6]. Description: labeled free peptide on immobilized Bcl-XL-GST with Bak BH3 competitor. The protocol: Only three of the selected proteins (Bim, Bak, and Bax) were previously known to contain a BH3 domain. In order to determine if the other proteins bound to the BH3 domain binding site on Bcl-XL, a competition assay was performed. The Bak BH3 domain peptide used as a positive control was prepared by chemical synthesis and used to compete with individual Bcl-XL-binding polypeptides in a Bcl-XL binding assay. […] At a fixed concentration of immobilized Bcl-XL, the Bak BH3 domain-containing peptide […] (SEQ ID NO: 152), also containing a FLAG-M2 epitope, was added at the indicated concentration along with a trace amount of a selected Talin fragment. After binding for 1 hour, the unbound material was removed and the bound protein was quantitated. The bound protein was assayed by scintillation counting, normalized to that bound in the absence of competitor, and plotted versus competitor concentration.
A competition assay was performed for each of the selected Bcl-XL-binding polypeptides using 20 μM Bak BH3 competitor based on the titration shown in FIG. 6.

T3 sequence (P08515 1-218, tags or fused parts left off): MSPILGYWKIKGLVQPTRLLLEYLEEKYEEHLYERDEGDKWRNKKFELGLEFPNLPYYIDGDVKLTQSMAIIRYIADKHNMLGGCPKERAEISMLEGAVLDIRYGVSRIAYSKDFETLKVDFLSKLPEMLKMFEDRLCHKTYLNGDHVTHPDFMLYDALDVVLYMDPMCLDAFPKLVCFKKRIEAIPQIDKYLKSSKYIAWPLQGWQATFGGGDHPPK
T1 sequence (Q07817 1-211): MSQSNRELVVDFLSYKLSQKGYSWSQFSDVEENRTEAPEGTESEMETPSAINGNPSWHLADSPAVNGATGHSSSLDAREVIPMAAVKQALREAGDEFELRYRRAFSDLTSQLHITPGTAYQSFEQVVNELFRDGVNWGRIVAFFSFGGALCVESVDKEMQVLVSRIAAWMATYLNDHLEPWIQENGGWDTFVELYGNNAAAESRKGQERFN
T2 sequence (Q07817 1-211): as above
Chain of human Bcl-XL-GST fusion protein (human) [GST: P08515] (P08515 1-218, tags or fused parts left off): as the sequence (P08515 1-218, tags or fused parts left off) above

As for “Bax (clone AttB-Hc-7) (from UniProt Q07812 40-95) (peptide)”, the percent bound in assay [1] is 32%.
Regarding “SRP9: selected SRP9 polypeptide of the additional selection, purified free polypeptide (IGEEFSRAAEKLYLAV)”, the “Binding to the Bcl-XL-GST fusion protein” value in assay [2] was determined as 0.65%.
On the same count and under the same terms, to “Bmf: selected Bmf polypeptide of the additional selection, purified free polypeptide (KAEVQIARKLQCIADQFHRLHVL)” belongs 6%.
For “Bcl-2: BH3 domain of Bcl-2 prepared as mRNA display construct (FIG. 2A) (PVVHLTLRQAGDDFSR)”, the “percent of input counts bound to Bcl-XL-GST” value in assay [3] is given as “no binding was observed”.

B1: BH3 domain of Bcl-2, mRNA display construct (peptide, UniProt P10415 91-106, looked up)
peptide: PVVHLTLRQAGDDFSR
notes: domain: BH3 domain; Peptide fused to its mRNA through puromycin; also called BH3 helix from Bcl-2
Take B1: in assay [4], the binding result was “no binding”.

B2: Bak BH3 domain-containing peptide MGQVGRQLAIIGDDINRDYKDDDDKASA (peptide)
peptide: MGQVGRQLAIIGDDINRDYKDDDDKASA
notes: Chemically synthesized free peptide; also called selected Bak fragment
B2: the binding result in assay [5] is recorded as “binds”.

B3: clone t53 (peptide)
chain: LDPVKDVLILSALRRMLWAADDFLEDLPFEQIG
notes: mRNA display clone from a known polypeptide
Turning to B3, the binding result in assay [6] was “binds”.
